The nature of the data set: In Vivo Interferon Delivery (ELISA for human interferon). Also noted: species or system Rats. The settings on record: 1 mg/kg interferon, no carrier.

interferon: the “Mean peak serum interferon concentration” value (IC) is 79±100 and the “Mean peak serum interferon concentration” value (PO) amounted to 1951±1857.

(Values after patent publication US6060513A, “Compounds and compositions for delivering active agents” (Emisphere Technologies, Inc., priority 1997, dated 2000).)
